In patent publication US20080227698A1, “OLIGOPEPTIDES FOR TREATMENT OF OSTEOPOROSIS AND OTHER BONE DISEASES AND METHODS THEREOF” (Washington University, priority 2005, published 2008):
One block for each molecule: values may come before it.

How the values were obtained:
[1] = biological target: LRP5 (Homo sapiens, UniProt O75197); assay: ^125I-DKK1 binding to LRP5, competition by Mesd or oligopeptide (FIG. 10B)
Method: (§1) In order to investigate the binding of Mesd polypeptide and an Mesd oligopeptide to either LRP5 or LRP6, binding assays were performed using ^125I-Mesd or ^125I-DKK1 (FIG. 10).

[2] = system: ST-2 cells; assay: Alkaline phosphatase activity in ST-2 cells infected with DKK1 retrovirus; format: cell-based; settings: increasing amounts of oligopeptide; non-transfected cells approximately 0.14 units, DKK1-infected cells about 0.02 units
Excerpt: Osteoblasts are cells which build bone. One marker for osteoblast activity is the cell surface enzyme alkaline phosphatase (AP). ST-2 cells are an osteoblast-derived cell line which provides an in vitro model system for studying osteoblast activity. […] Treatment of the transfected cells with increasing amounts of a Mesd oligopeptide having sequence

[3] = biological target: LRP6 (Homo sapiens, UniProt O75581); assay: ^125I-Mesd binding to LRP6, competition by Mesd or oligopeptide (FIG. 10C); set-up: plasmid pCS-Myc-hLRP6 containing the full-length human LRP6 cDNA; HA; expressed in transfected cells; host or cells: human HT1080 cells, stably transduced (pLNCX2 retroviral vector); settings: compared with LRP5 (up to about 10-fold)
Method: as §1

[4] = biological target: T1, LRP6 on LRP6-transduced HT1080 cells (HA-tagged) (UniProt O75581 20-1613, limits assumed); assay: competition against 125I-DKK1 for LRP6 (FIG. 10D)
T1 construct: whole, on cells; also called mature LRP6; cell surface LRP6

[5] = biological target: T2, human Myc-tagged LRP5 on transiently transfected HEK293 cells (human, UniProt O75197 32-1615); assay: competition against 125I-Mesd for LRP5 (FIG. 10A)
T2 construct: whole, on cells; also called mature LRP5; pcDNA3.1C-Myc-hLRP5

[6] = biological target: T1, LRP6 on LRP6-transduced HT1080 cells …; assay: Scatchard analysis of 125I-Mesd saturation binding to LRP6-transduced HT1080 cells, 3 h at 4 C
Excerpt: (C) Scatchard plots of data in B. All values are the average of triple determinations with the s.d. indicated by error bars.

[7] = biological target: T3, human VLDLR on stably transfected LRP-null CHO cells (human, UniProt P98155 28-873); assay: 125I-Mesd binding to stably transfected LRP-null CHO cells, 4 h at 4 C, with or without 500 nM Mesd
T3 construct: whole, on cells

[8] = biological target: T4, human apoER2 on stably transfected LRP-null CHO cells (human, UniProt Q14114 33-963); assay: as above
T4 construct: whole, on cells
T4 sequence (looked up): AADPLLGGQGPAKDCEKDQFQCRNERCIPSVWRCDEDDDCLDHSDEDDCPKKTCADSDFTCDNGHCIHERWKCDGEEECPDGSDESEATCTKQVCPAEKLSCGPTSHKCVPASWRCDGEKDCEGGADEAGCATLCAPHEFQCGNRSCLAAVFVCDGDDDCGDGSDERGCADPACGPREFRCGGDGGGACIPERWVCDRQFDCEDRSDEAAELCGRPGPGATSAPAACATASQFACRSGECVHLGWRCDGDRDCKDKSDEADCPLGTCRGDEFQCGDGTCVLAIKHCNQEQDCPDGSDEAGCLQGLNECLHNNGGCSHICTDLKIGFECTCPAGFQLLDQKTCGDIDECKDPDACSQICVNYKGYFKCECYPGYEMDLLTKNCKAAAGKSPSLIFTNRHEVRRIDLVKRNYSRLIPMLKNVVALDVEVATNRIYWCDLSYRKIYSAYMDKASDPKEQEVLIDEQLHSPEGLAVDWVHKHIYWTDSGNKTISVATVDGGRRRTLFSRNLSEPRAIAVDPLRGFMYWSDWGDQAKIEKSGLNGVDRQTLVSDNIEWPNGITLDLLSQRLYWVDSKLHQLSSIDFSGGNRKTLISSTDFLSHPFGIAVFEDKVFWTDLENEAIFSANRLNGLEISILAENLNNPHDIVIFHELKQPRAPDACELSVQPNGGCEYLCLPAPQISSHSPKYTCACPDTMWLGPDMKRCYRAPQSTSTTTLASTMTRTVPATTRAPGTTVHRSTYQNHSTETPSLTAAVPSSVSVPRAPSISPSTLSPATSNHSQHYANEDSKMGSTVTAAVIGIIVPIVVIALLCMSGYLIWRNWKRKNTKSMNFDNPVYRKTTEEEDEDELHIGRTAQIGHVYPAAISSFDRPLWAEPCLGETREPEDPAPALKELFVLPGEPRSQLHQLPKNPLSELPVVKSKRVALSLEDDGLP

[9] = biological target: T1, LRP6 on LRP6-transduced HT1080 cells …; assay: binding of truncated Mesd mutants to cell surface LRP6 (FIG. 3B)

T1 sequence (O75581 20-1613 limits assumed): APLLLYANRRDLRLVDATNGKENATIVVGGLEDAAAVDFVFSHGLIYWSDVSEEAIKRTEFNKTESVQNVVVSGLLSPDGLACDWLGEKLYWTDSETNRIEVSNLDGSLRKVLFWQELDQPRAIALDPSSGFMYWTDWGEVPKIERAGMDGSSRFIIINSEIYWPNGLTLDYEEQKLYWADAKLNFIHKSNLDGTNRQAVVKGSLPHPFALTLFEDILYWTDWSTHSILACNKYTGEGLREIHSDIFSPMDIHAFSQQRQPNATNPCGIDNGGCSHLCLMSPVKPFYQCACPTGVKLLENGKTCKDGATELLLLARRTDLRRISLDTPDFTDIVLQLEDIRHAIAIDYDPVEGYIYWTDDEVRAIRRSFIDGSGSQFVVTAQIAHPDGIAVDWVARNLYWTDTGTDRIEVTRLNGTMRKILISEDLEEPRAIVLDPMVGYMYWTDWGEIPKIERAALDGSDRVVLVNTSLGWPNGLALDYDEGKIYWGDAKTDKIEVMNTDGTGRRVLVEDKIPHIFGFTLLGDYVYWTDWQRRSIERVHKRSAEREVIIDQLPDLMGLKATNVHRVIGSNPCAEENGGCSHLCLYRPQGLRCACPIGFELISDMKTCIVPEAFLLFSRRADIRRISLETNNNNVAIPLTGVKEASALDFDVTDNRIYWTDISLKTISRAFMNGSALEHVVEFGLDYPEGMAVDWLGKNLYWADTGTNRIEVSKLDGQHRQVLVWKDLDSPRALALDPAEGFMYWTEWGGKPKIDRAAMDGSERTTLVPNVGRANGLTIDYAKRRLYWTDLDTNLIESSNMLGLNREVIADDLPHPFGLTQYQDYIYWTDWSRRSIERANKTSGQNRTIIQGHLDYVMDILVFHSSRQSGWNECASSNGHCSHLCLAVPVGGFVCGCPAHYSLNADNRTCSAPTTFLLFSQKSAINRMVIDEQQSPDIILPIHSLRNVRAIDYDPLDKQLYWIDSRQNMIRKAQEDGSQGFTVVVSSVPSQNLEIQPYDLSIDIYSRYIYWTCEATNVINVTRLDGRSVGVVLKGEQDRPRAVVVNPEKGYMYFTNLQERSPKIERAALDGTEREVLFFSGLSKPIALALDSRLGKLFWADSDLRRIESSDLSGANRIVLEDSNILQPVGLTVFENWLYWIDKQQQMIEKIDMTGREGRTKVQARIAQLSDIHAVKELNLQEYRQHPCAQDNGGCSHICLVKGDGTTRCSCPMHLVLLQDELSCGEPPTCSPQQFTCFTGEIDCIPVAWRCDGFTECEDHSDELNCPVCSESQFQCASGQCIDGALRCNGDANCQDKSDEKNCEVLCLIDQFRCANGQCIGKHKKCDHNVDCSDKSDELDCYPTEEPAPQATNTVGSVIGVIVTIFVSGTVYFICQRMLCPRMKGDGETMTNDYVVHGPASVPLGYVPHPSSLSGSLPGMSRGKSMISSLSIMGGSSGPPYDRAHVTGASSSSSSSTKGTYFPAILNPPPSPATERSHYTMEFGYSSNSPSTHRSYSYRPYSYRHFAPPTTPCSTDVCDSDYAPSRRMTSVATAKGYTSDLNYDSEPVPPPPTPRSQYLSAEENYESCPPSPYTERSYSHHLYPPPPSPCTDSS
Chain of LRP5 (O75197 32-1615): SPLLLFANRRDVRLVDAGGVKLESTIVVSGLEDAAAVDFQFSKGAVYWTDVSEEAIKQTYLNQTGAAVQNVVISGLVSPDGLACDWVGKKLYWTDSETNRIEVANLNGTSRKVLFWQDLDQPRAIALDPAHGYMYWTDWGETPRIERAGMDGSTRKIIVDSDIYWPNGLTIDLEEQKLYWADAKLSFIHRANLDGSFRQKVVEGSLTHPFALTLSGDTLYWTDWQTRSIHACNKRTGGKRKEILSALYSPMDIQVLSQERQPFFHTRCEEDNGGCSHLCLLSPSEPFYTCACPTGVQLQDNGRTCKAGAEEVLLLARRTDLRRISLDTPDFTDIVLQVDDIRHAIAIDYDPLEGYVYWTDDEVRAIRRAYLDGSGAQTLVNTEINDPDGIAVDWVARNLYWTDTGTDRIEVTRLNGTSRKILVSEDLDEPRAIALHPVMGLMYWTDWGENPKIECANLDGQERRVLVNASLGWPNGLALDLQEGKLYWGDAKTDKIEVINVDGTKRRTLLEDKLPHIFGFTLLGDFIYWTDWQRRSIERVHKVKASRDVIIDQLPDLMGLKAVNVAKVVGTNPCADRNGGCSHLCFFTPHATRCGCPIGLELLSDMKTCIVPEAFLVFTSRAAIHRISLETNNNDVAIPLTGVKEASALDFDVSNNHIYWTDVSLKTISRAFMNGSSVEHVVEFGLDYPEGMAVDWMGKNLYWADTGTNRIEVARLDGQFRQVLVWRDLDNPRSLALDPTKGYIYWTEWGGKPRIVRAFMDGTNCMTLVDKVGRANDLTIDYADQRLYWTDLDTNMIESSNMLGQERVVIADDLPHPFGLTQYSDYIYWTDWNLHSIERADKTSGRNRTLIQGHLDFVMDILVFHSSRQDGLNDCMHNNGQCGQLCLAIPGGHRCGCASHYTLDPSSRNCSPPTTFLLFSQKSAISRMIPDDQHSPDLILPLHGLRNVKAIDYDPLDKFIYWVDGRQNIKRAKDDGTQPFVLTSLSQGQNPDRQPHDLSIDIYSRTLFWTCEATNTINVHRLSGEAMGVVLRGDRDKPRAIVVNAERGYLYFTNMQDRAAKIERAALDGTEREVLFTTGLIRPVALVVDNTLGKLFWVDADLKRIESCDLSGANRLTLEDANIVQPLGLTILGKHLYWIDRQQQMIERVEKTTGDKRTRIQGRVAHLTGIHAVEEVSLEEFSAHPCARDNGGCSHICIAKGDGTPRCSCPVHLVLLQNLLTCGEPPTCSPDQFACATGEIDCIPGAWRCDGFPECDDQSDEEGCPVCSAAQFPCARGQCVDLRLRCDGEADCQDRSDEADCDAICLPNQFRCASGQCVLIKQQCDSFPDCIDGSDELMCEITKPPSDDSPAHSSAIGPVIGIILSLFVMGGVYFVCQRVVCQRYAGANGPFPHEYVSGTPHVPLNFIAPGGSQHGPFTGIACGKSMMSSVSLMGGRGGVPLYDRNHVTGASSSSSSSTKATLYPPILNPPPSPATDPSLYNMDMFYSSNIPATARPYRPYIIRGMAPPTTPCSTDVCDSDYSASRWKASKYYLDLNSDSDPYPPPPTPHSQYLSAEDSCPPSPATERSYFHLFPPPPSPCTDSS
T2 sequence (O75197 32-1615): as above
Chain of LRP6 (O75581 20-1613): as the sequence (O75581 20-1613 limits assumed) above

- Reduction in binding of ^125I-DKK1 to LRP5 [1]: small but significant reduction
- Reduction of binding of ^125I-Mesd to LRP6 [3]: even greater reduction
Molecule: KGGGSKEKNKTKPEKAKKKEGDPKPRASKEDNRAGSR [SEQ ID NO: 20]
- Alkaline phosphatase (AP) activity [2]: increasing levels of AP activity

- fold reduction of ^125I-DKK1 binding [4]: > 2 fold
- fold reduction of ^125I-Mesd binding [5]: ~10 fold
- Kd [6]: ~3.3 nM
- binding result [7]: no binding (tested: 5 nM 125I-Mesd)
- binding result [8]: no binding (tested: 5 nM 125I-Mesd)
B1: recombinant mouse Mesd protein (wild type) (other, not shown: small tags and cut ends)
chain: ADTPGEATPPPRKKKDIRDYNDADMARLLEQWEKDDDIEEGDLPEHKRPSAPIDFSKLDPGKPESILKMTKKGKTLMMFVTVSGNPTEKETEEITSLWQGSLFNANYDVQRFIVGSDRAIFMLRDGSYAWEIKDFLVSQDRCAEVTLEGQMYPGKGGGSKEKNKTKPEKAKKKEGDRKPRASKEDNRAGSRREDL
modifications: 125I-iodinated (IODO-GEN) when used as radioligand
notes: Made in E. coli from full-length mouse Mesd cDNA; also called wild type Mesd

- binding result [9]: no binding
B2: Mesd(12-155) (other, not shown: small tags and cut ends)
chain: RKKKDIRDYNDADMARLLEQWEKDDDIEEGDLPEHKRPSAPIDFSKLDPGKPESILKMTKKGKTLMMFVTVSGNPTEKETEEITSLWQGSLFNANYDVQRFIVGSDRAIFMLRDGSYAWEIKDFLVSQDRCAEVTLEGQMYPGK
modifications: 125I-iodinated when used as radioligand
notes: also called truncated Mesd mutant lacking both the N-terminal and C-terminal regions
